Literature values as cited in PMC5576036.

Tests used:
[1] = target: CD25 (IL-2Rα) (Homo sapiens) (UniProt P01589)
[2] = target: CD122 (IL-2Rβ) (Homo sapiens) (UniProt P14784)
[3] = target: intermediate-affinity IL-2R (CD122/CD132) (Homo sapiens) (UniProt P14784)

Chain of UniProt P01589 (P01589 22-240): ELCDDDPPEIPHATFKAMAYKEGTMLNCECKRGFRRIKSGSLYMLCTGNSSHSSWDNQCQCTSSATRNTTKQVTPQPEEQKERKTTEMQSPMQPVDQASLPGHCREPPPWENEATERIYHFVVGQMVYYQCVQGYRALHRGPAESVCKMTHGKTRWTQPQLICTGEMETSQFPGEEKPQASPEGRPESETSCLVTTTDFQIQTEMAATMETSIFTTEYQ

Kd [1]: 10 nM
Kd [2]: 100 nM
Kd [3]: 1 nM
Substance: IL-2 (from UniProt P60568)
